Laboratory results taken from PMC9117268, “HDLBP binds ER-targeted mRNAs by multivalent interactions to promote protein synthesis of transmembrane and secreted proteins”.

Key:
[1] = target: T1, HDLBP full-length (FL), Vigilin (Homo sapiens, UniProt Q00341 1-1268); assay: fluorescence anisotropy; 20 mM Tris pH 7.5, 60 mM KCl, 1 mM EDTA, 10% glycerol, 1 ng/ul tRNA, 1 ng/ul heparin, 0.4 U/ul RNasin, 200 ng/ul BSA; 10 nM RNA probe; 20 min on ice; settings: protein: recombinant; purification section says GST removed by TEV; label: 5' fluorescein
[2] = target: T1, HDLBP full-length (FL), Vigilin; assay: as above; settings: protein: recombinant; purification section says GST removed by TEV; label: 5' fluorescein; remark: listed apart in the source

T1 sequence (Q00341 whole entry): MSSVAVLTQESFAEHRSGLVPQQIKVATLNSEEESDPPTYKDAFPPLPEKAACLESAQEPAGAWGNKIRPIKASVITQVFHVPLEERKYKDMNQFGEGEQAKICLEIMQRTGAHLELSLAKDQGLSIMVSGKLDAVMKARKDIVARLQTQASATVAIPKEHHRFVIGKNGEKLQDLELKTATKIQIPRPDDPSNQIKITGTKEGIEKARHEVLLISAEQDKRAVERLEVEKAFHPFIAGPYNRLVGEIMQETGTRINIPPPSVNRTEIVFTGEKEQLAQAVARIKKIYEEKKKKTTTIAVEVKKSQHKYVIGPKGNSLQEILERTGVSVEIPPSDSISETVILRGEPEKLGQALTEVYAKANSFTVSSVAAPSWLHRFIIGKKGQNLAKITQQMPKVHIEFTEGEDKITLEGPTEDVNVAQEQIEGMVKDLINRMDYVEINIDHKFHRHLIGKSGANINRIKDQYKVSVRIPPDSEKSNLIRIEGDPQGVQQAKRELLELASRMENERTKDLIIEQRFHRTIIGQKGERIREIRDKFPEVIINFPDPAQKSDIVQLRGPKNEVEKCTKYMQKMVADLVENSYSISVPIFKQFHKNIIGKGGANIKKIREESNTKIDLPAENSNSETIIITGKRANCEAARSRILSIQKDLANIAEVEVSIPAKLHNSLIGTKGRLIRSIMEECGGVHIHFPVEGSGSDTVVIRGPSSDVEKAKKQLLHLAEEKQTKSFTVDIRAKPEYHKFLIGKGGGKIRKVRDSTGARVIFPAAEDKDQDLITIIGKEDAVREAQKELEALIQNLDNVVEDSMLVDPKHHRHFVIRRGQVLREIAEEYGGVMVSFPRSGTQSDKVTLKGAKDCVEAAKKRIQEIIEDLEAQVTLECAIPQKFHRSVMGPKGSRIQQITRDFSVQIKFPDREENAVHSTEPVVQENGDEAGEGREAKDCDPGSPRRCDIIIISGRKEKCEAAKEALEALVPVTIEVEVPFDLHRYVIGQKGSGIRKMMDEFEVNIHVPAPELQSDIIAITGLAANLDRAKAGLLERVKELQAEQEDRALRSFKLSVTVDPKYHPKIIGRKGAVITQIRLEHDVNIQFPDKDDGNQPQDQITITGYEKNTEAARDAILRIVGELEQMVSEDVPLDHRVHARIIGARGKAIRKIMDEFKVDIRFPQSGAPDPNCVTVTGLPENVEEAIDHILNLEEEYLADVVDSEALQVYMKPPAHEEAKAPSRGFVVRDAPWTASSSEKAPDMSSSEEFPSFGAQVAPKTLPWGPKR

CACAGCUCUCCUAUUGAAACUUGCCCAGAUGUU (ssRNA) [TFRC_2]
binding result [1]: binds

CAACAACAACAACAACAACAACAACAACAACAA (ssRNA) [CAA_oligomer]
binding signal [2]: ~10 fold lower affinity than CCU/CUU oligomers

AUUCCCUUCCUUCAAUCACACUCAGUUUCCACC (ssRNA) [TFRC_1]
binding result [1]: binds
